This is an account of results in patent US20170306033A1 (Amgen, published 2017).

To fix the notation:
T1: human PAC1 receptor (human, UniProt P41586 21-468)
T1 sequence: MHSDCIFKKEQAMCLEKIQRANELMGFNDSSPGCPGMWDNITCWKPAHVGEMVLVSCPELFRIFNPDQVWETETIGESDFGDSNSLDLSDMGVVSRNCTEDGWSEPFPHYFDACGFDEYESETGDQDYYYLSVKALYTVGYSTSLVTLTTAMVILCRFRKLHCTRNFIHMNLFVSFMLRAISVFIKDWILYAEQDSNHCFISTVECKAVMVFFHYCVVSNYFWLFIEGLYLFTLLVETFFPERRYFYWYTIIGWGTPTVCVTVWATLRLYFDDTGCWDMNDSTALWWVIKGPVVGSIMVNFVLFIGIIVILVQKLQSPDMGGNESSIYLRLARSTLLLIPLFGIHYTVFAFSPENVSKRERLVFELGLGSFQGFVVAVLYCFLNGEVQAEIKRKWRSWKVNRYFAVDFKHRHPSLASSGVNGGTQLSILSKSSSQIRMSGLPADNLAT

B1: iPS:326628 (bispecific antibody, human IgG2, kappa, lambda)
light 1: DIQLTQSPSFLSASVGDRVTITCRASQSIGRSLHWYQQKPGKAPKLLIKYASQSLSGVPSRFSGSGSGTEFTLTISSLQPEDFATYYCHQSSRLPFTFGPGTKVDIKRTVAAPSVFIFPPSDEQLKSGTASVVCLLNNFYPREAKVQWKVDNALQSGNSQESVTEQDSKDSTYSLESTLTLSKADYEKHKVYACEVTHQGLSSPVTKSFNRGEC
heavy 1: QVQLVESGAEVVKPGASVKVSCKASGFTFSRFAMHWVRQAPGQGLEWMGVISYDGGNKYYAESVKGRVTMTRDTSTSTLYMELSSLRSEDTAVYYCARGYDVLTGYPDYWGQGTLVTVSSASTKGPSVFPLAPCSRSTSESTAALGCLVKDYFPEPVTVSWNSGALTSGVHTFPAVLQSSGLYSLKSVVTVPSSNFGTQTYTCNVDHKPSNTKVDKTVERKCCVECPPCPAPPVAGPSVFLFPPKPKDTLMISRTPEVTCVVVDVSHEDPEVQFNWYVDGVEVHNAKTKPREEQFNSTFRVVSVLTVVHQDWLNGKEYKCKVSNKGLPAPIEKTISKTKGQPREPQVYTLPPSREEMTKNQVSLTCLVDGFYPSDIAVEWESNGQPENNYDTTPPMLDSDGSFFLYSDLTVDKSRWQQGNVFSCSVMHEALHNHYTQKSLSLSPGK
light 2: not shown
heavy 2: not shown
B2: iPS:327282 (bispecific antibody, human IgG1, kappa, lambda, N297G)
light 1: B1 light 1
heavy 1: not shown
light 2: QSVLTQPPSVSAAPGQKVTISCSGSSSNIGNNYVSWYQQLPGTAPKLLIYDNNKRPSGIPDRFSGSKSGTSTTLGITGLQTGDEADYYCGTWDSRLSAVVFGGGTKLTVLGQPKANPTVTLFPPSSEELQANKATLVCLISDFYPGAVTVAWKADGSPVKAGVETTKPSKQSNNKYAAKSYLSLTPEQWKSHRSYSCQVTHEGSTVEKTVAPTECS
heavy 2: QVQLVESGGGVVQPGRSLRLSCAASGFTFSSFGMHWVRQAPGKGLEWVAVISFDGSIKYSVDSVKGRFTISRDNSKNTLFLQMNSLRAEDTAVYYCARDRLNYYDSSGYYHYKYYGMAVWGQGTTVTVSSASTKGPSVFPLAPSSKSTSGGTAALGCLVKDYFPEPVTVSWNSGALTSGVHTFPAVLQSSGLYSLESVVTVPSSSLGTQTYICNVNHKPSNTKVDKKVEPKSCDKTHTCPPCPAPELLGGPSVFLFPPKPKDTLMISRTPEVTCVVVDVSHEDPEVKFNWYVDGVEVHNAKTKPCEEQYGSTYRCVSVLTVLHQDWLNGKEYKCKVSNKALPAPIEKTISKAKGQPREPQVYTLPPSRKEMTKNQVSLTCLVKGFYPSDIAVEWESNGQPENNYKTTPPVLKSDGSFFLYSKLTVDKSRWQQGNVFSCSVMHEALHNHYTQKSLSLSPGK
B3: iPS:327278 (bispecific antibody, human IgG1, kappa, lambda, N297G)
light 1: B1 light 1
heavy 1: not shown
light 2: not shown
heavy 2: not shown
B4: iPS:327283 (bispecific antibody, human IgG1, kappa, lambda, N297G)
light 1: EIVLTQSPATLSLSPGERATLSCRASQSVGRSLHWYQQKPGQAPRLLIKYASQSLSGIPARFSGSGSGTDFTLTISSLEPEDFAVYYCHQSSRLPFTFGPGTKVDIKRTVAAPSVFIFPPSDEQLKSGTASVVCLLNNFYPREAKVQWKVDNALQSGNSQESVTEQDSKDSTYSLESTLTLSKADYEKHKVYACEVTHQGLSSPVTKSFNRGEC
heavy 1: not shown
light 2: B2 light 2
heavy 2: B2 heavy 2
B5: iPS:328000 (bispecific antibody, human IgG2, kappa, lambda)
light 1: not shown
heavy 1: QVQLQESGPGLVKPSQTLSLTCTVSGGSISSGGYYWSWIRQHPGKGLEWIGYIYYSGNTYYNPSLKSRVTISGDTSKNQFSLKLRSVTAADTAVYYCTRGGAARGMDVWGQGTTVTVSSASTKGPSVFPLAPCSRSTSESTAALGCLVKDYFPEPVTVSWNSGALTSGVHTFPAVLQSSGLYSLKSVVTVPSSNFGTQTYTCNVDHKPSNTKVDKTVERKCCVECPPCPAPPVAGPSVFLFPPKPKDTLMISRTPEVTCVVVDVSHEDPEVQFNWYVDGVEVHNAKTKPREEQFNSTFRVVSVLTVVHQDWLNGKEYKCKVSNKGLPAPIEKTISKTKGQPREPQVYTLPPSREEMTKNQVSLTCLVDGFYPSDIAVEWESNGQPENNYDTTPPMLDSDGSFFLYSDLTVDKSRWQQGNVFSCSVMHEALHNHYTQKSLSLSPGK
light 2: B2 light 2
heavy 2: QVQLVESGGGVVQPGRSLRLSCAASGFTFSSFGMHWVRQAPGKGLEWVAVISFDGSIKYSVDSVKGRFTISRDNSKNTLFLQMNSLRAEDTAVYYCARDRLNYYDSSGYYHYKYYGMAVWGQGTTVTVSSASTKGPSVFPLAPCSRSTSESTAALGCLVKDYFPEPVTVSWNSGALTSGVHTFPAVLQSSGLYSLESVVTVPSSNFGTQTYTCNVDHKPSNTKVDKTVERKCCVECPPCPAPPVAGPSVFLFPPKPKDTLMISRTPEVTCVVVDVSHEDPEVQFNWYVDGVEVHNAKTKPREEQFNSTFRVVSVLTVVHQDWLNGKEYKCKVSNKGLPAPIEKTISKTKGQPREPQVYTLPPSRKKMTKNQVSLTCLVKGFYPSDIAVEWESNGQPENNYKTTPPMLKSDGSFFLYSKLTVDKSRWQQGNVFSCSVMHEALHNHYTQKSLSLSPGK
B6: iPS:327280 (bispecific antibody, human IgG1, kappa, lambda, N297G)
light 1: not shown
heavy 1: not shown
light 2: B2 light 2
heavy 2: B2 heavy 2
B7: iPS:327284 (bispecific antibody, human IgG1, kappa, lambda, N297G)
light 1: DIQMTQSPSSLSASVGDRITITCRASQSISRYLNWYQQKPGKAPKLLIYAASSLQSGIPSRFSGSGSGTDFTLTINSLQPEDFATYFCQQSYSPPFTFGEGTKVDIKRTVAAPSVFIFPPSDEQLKSGTASVVCLLNNFYPREAKVQWKVDNALQSGNSQESVTEQDSKDSTYSLESTLTLSKADYEKHKVYACEVTHQGLSSPVTKSFNRGEC
heavy 1: not shown
light 2: B2 light 2 with G103K
heavy 2: B2 heavy 2 with G44E
B8: iPS:327285 (bispecific antibody, human IgG1, kappa, lambda, N297G)
light 1: not shown
heavy 1: not shown
light 2: B2 light 2 with G103K
heavy 2: B2 heavy 2 with G44E
B9: iPS:327279 (bispecific antibody, human IgG1, kappa, lambda, N297G)
light 1: B4 light 1
heavy 1: not shown
light 2: not shown
heavy 2: not shown
B10: iPS:326417 (bispecific antibody, human IgG1, kappa, N297G)
light 1: not shown
heavy 1: not shown
light 2: EIVLTQSPGTLSLSPGERATLSCRASQSVSSGYLTWYQQKPGQAPRLLIYGASSRATGIPDRFSGSGSGTDFTLTISRLEPEDFAVYYCQQYGNSLSRFGQGTKLEIKRTVAAPSVFIFPPSDEQLKSGTASVVCLLNNFYPREAKVQWKVDNALQSGNSQESVTEQDSKDSTYSLKSTLTLSKADYEKHKVYACEVTHQGLSSPVTKSFNRGEC
heavy 2: not shown

Changes are numbered by the printed parent chain.

Chain of human CGRP receptor (Q16602 23-461 limits assumed, chain 1 of 2): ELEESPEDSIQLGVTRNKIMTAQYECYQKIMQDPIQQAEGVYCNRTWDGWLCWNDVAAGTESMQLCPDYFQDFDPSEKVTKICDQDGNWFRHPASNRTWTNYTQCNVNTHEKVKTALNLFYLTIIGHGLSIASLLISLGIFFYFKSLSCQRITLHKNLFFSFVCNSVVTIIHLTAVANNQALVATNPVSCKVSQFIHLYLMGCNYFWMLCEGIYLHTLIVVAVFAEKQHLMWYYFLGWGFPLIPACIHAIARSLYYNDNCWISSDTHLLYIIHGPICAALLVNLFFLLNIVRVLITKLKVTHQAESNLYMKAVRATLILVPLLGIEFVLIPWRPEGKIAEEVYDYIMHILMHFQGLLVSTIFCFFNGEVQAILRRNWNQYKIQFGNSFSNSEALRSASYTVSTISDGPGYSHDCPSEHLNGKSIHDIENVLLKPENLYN
Chain of human CGRP receptor (O60894 27-148 limits assumed, chain 2 of 2): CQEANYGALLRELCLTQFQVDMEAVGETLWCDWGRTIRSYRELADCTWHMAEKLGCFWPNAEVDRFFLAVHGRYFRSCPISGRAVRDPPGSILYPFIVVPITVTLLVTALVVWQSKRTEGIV

The target in one assay is T1, human PAC1 receptor. Nature of the assay: cell-based or functional assay.
Take B1: the “% inhibition of human PAC1” value is 61%.

Regarding B2, the “% inhibition of human PAC1” value worked out at 58%.

On to B3, for which the “% inhibition of human PAC1” value was 47%.

For the molecule B4, the “% inhibition of human PAC1” value was 99%.

As to B5, the “% inhibition of human PAC1” value was 63%.

B6: the “% inhibition of human PAC1” value came out at 83%.

As for B7, the “% inhibition of human PAC1” value is 25%.

In the case of B8, the “% inhibition of human PAC1” value stood at 9%.

As for B9, the “% inhibition of human PAC1” value was determined as 95%.

Turning to B10, the “% inhibition of human PAC1” value is 48%.

A further assay has as its target human CGRP receptor (human, UniProt Q16602 23-461; O60894 27-148). Briefly: cell-based or functional assay.
For B1, the “% inhibition of human CGRPR” value came out at 84%.

Consider B2, for which the “% inhibition of human CGRPR” value came out at 87%.

As to B3, the “% inhibition of human CGRPR” value worked out at 85%.

For the molecule B4, the “% inhibition of human CGRPR” value amounted to 85%.

With B5, the “% inhibition of human CGRPR” value was 75%.

Take B6: the “% inhibition of human CGRPR” value came out at 80%.

Regarding B7, the “% inhibition of human CGRPR” value was 77%.

For B8, the “% inhibition of human CGRPR” value worked out at 84%.

With B9, the “% inhibition of human CGRPR” value is 73%.

With B10, the “% inhibition of human CGRPR” value stood at 66%.
